B1: library; numbered along this chain (parent)
chain: MRKPRAAVGSGHRKQAASQEGRQKHAKNNSQAKPSACDGLARQPEEVVLQASVSSYHLFRDVAEVTAFRGSLLSWYDQEKRDLPWRRRAEDEMDLDRRAYAVWVSEVMLQQTQVATVINYYTGWMQKWPTLQDLASASLEEVNQLWAGLGYYSRGRRLQEGARKVVEELGGHMPRTAETLQQLLPGVGRYTAGAIASIAFGQATGVVDGNVARVLCRVRAIGADPSSTLVSQQLWGLAQQLVDPARPGDFNQAAMELGATVCTPQRPLCSQCPVESLCRARQRVEQEQLLASGSLSGSPDVEECAPNTGQCHLCLPPSEPWDQTLGVVNFPRKASRKPPREESSATCVLEQPGALGAQILLVQRPNSGLLAGLWEFPSVTWEPSEQLQRKALLQELQRWAGPLPATHLRHLGEVVHTFSHIKLTYQVYGLALEGQTPVTTVPPGARWLTQEEFHTAAVSTAMKKVFRVYQGQQPGTCMGSKRSQVSSPCSRKKPRMGQQVLDNFFRSHISTDAHSLNSAAQ

Variants of: B1
Assay: 8OG:A repair function score (normalized; synonymous = 0, nonsense = -1) (normalized log-likelihood score); higher = more repair activity (WT-like)
Settings: with 8OG:A DNA repair reporter (GFP) in HEK-293 MUTYH KO cells
In short: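 GFP+ (repair) and GFP− bins of viable mCherry+ cells were collected at 72 h from MUTYH knockout HEK-293 cells bearing lentiviral MUTYH cDNA NNN codon-scan libraries in 10 pg/ml doxycycline, co-transfected with an 8OG:A GFP repair reporter and mCherry. Tile amplicons were sequenced, and per-tile Rosace fitness scores were normalized to a repair function score anchored on synonymous and nonsense distributions. Synonymous medians were set to 0 and nonsense to -1, with variants under 300 counts per million at the start removed.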
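Further: cells sorted at 72 h after reporter transfection.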

First: MRKPRAAVGSGHRKQAASQEGRQKHAKNNSQAKPSACDGLARQPEEVVLQASVSSYHLFRDVAEVTAFRGSLLSWYDQEKRDLPWRRRAEDEMDLDRRAYAVWVSEVMLQQTQVATVINYYTGWMQKWPTLQDLASASLEEVNQLWAGLGYYSRGRRLQEGARKVVEELGGHMPRTAETLQQLLPGVGRYTAGAIASIAFGQATGVVDGNVARVLCRVRAIGADPSSTLVSQQLWGLAQQLVDPARPGDFNQAAMELGATVCTPQRPLCSQCPVESLCRARQRVEQEQLLASGSLSGSPDVEECAPNTGQCHLCLPPSEPWDQTLGVVNFPRKASRKPPREESSATCVLEQPGALGAQILLVQRPNSGLLAGLWEFPSVTWEPSEQLQRKALLQELQRWAGPLPATHLRHLGEVVHTFSHIKLTYQVYGLALEGQTPVTTVPPGARWLTQEEFHTAAVSTAMKKVFRVYQGQQPITCMGSKRSQVSSPCSRKKPRMGQQVLDNFFRSHISTDAHSLNSAAQ [G475I]
Second: MRKPRAAVGSGHRKQAASQEGRQKHAKNNSQAKPSACDGLARQPEEVVLQASVSSYHLFRDVAEVTAFRGSLLSWYDQEKRDLPWRRRAEDEMDLDRRAYAVWVSEVMLQQTQVATVINYYTGWMQKWPTLQDLASASLEEVNQLWAGLGYYSRGRRLQEGARKVVEELGGHMPRTAETLQQLLPGVGRYTAGAIASIAFGQATGVVDGNVARVLCRVRAIGADPSSTLVSQQLWGLAQQLVDPARPGDFNQAAMELGATVCTPQRPLCSQCPVESLCRARQRVEQEQLLASGSLSGSPDVEECAPNTGQCHLCLPPSEPWDQTLGVVNFPRKASRKPPREESSATCVLEQPGALGAQILLVQRPNSGLLAGLWEFPSVTWEPSEQLQRKALLQELQRWAGPLPATHLRHLGEVVHTFSHIKLTYQVYGLALEGQTPVTTVPPGARWLTQEEFHTAAVSTAMKKVFRVYQGQQPCTCMGSKRSQVSSPCSRKKPRMGQQVLDNFFRSHISTDAHSLNSAAQ [G475C]
The “8OG:A repair function score” value of the first is lower: -0.00703 for the first, 0.00154 for the second.

First: MRKPRAAVGSGHRKQAASQEGRQKHAKNNSQAKPSACDGLARQPEEVVLQASVSSYHLFRDVAEVTAFRGSLLSWYDQEKRDLPWRRRAEDEMDLDRRAYAVWVSEVMLQQTQVATVINYYTGWMQKWPTLQDLASASLEEVNQLWAGLGYYSRGRRLQEGARKVVEELGGHMPRTAETLQQLLPGVGRYTAGAIASIAFGQATGVVDGNVARVLCRVRAIGADPSSTLVSQQLWGLAQQLVDPARPGDFNQAAMELGATVCTPQRPLCSQCPVESLCRARQRVEQEQLLASGSLSGSPDVEECAPNTGQCHLCLPPSEPWDQTLGVVNFPRKASRKPPREESSATCVLEQPGALGAQILLVQRPNSGLLAGLWEFPSVTWEPSEQLQRKALLQELQRWAGPLPATHLRHLGEVVHTFSHIKLTYQVYGLALEGQTPVTTVPPGARWLTQEEFHTAAVSTAMKKVFRVYQGQQPFTCMGSKRSQVSSPCSRKKPRMGQQVLDNFFRSHISTDAHSLNSAAQ [G475F]
Second: MRKPRAAVGSGHRKQAASQEGRQKHAKNNSQAKPSACDGLARQPEEVVLQASVSSYHLFRDVAEVTAFRGSLLSWYDQEKRDLPWRRRAEDEMDLDRRAYAVWVSEVMLQQTQVATVINYYTGWMQKWPTLQDLASASLEEVNQLWAGLGYYSRGRRLQEGARKVVEELGGHMPRTAETLQQLLPGVGRYTAGAIASIAFGQATGVVDGNVARVLCRVRAIGADPSSTLVSQQLWGLAQQLVDPARPGDFNQAAMELGATVCTPQRPLCSQCPVESLCRARQRVEQEQLLASGSLSGSPDVEECAPNTGQCHLCLPPSEPWDQTLGVVNFPRKASRKPPREESSATCVLEQPGALGAQILLVQRPNSGLLAGLWEFPSVTWEPSEQLQRKALLQELQRWAGPLPATHLRHLGEVVHTFSHIKLTYQVYGLALEGQTPVTTVPPGARWLTQEEFHTAAVSTAMKKVFRVYQGQQPHTCMGSKRSQVSSPCSRKKPRMGQQVLDNFFRSHISTDAHSLNSAAQ [G475H]
The “8OG:A repair function score” value of the first is higher: -0.00573 for the first, -0.0609 for the second.

Compared with MRKPRAAVGSGHRKQAASQEGRQKHAKNNSQAKPSACDGLARQPEEVVLQASVSSYHLFRDVAEVTAFRGSLLSWYDQEKRDLPWRRRAEDEMDLDRRAYAVWVSEVMLQQTQVATVINYYTGWMQKWPTLQDLASASLEEVNQLWAGLGYYSRGRRLQEGARKVVEELGGHMPRTAETLQQLLPGVGRYTAGAIASIAFGQATGVVDGNVARVLCRVRAIGADPSSTLVSQQLWGLAQQLVDPARPGDFNQAAMELGATVCTPQRPLCSQCPVESLCRARQRVEQEQLLASGSLSGSPDVEECAPNTGQCHLCLPPSEPWDQTLGVVNFPRKASRKPPREESSATCVLEQPGALGAQILLVQRPNSGLLAGLWEFPSVTWEPSEQLQRKALLQELQRWAGPLPATHLRHLGEVVHTFSHIKLTYQVYGLALEGQTPVTTVPPGARWLTQEEFHTAAVSTAMKKVFRVYQGQQPATCMGSKRSQVSSPCSRKKPRMGQQVLDNFFRSHISTDAHSLNSAAQ [G475A], MRKPRAAVGSGHRKQAASQEGRQKHAKNNSQAKPSACDGLARQPEEVVLQASVSSYHLFRDVAEVTAFRGSLLSWYDQEKRDLPWRRRAEDEMDLDRRAYAVWVSEVMLQQTQVATVINYYTGWMQKWPTLQDLASASLEEVNQLWAGLGYYSRGRRLQEGARKVVEELGGHMPRTAETLQQLLPGVGRYTAGAIASIAFGQATGVVDGNVARVLCRVRAIGADPSSTLVSQQLWGLAQQLVDPARPGDFNQAAMELGATVCTPQRPLCSQCPVESLCRARQRVEQEQLLASGSLSGSPDVEECAPNTGQCHLCLPPSEPWDQTLGVVNFPRKASRKPPREESSATCVLEQPGALGAQILLVQRPNSGLLAGLWEFPSVTWEPSEQLQRKALLQELQRWAGPLPATHLRHLGEVVHTFSHIKLTYQVYGLALEGQTPVTTVPPGARWLTQEEFHTAAVSTAMKKVFRVYQGQQPKTCMGSKRSQVSSPCSRKKPRMGQQVLDNFFRSHISTDAHSLNSAAQ [G475K] is higher in “8OG:A repair function score” value: 0.000317 for the first, 0.0247 for the second.

Source: the supplement of paper PMC11908140
